Read-outs that look alike come from different tables or passages of the source.
B1: GalNAc-labeled LDLR conjugate (LDLR193 (193-720)(N515Q)(N657Q)_SrtA_CHis) (receptor)
chain: not shown
modifications: C-terminal sortase A ligation to GGG-triGalNAc at the LPETGG motif
notes: also called GalNAc trimer-anti-LDLR protein conjugate
B3: recombinant extracellular domain of human ASGPR1 with N-terminal biotinylated Avitag (receptor, UniProt P07306 62-291, looked up)
chain: QNSQLQEELRGLRETFSNFTASTEAQVKGLSTQGGNVGRKMKSLESQLEKQQKDLSEDHSSLLLHVKQFVSDLRSLSCQMAALQGNGSERTCCPVNWVEHERSCYWFSRSGKAWADADNYCRLEDAHLVVVTSWEEQKFVQHHIGPVNTWMGLHDQNGPWKWVDGTDYETGFKNWRPEQPDDWYGHGLGGGEDCAHFTDDGRWNDDVCQRPYRWVCETELDKASQEPPLL
modifications: biotin on the N-terminal Avitag
notes: extracellular domain; also called hASBPR1; AGSPR1; not shown: N-terminal Avitag

What was measured:
[1] = target: T1, purified recombinant full length human PCSK9 with C-terminal biotinylated Avitag (human, UniProt Q8NBP7 31-692, biotin on the C-terminal Avi-tag); test: SPR, 1:1 binding fit, stepwise injections over avi-PCSK9
T1 construct: Signal peptide removal and autocatalytic prodomain cleavage are not described for the construct; also called hPCSK9; full length hPCSK9; not shown: Avi-tag

His-ASGPR1(62-291) = target: T2, His-ASGPR1(62-291) (UniProt P07306 62-291); test: SPR, ternary format; panel title: hASGPR1 Binding Immobilized Bispecific Ab Bound to hPCSK9
T2 construct: range 62-291; also called ASGPR1 (analyte of the sandwich SPR assay); not shown: His tag
T2 sequence (looked up): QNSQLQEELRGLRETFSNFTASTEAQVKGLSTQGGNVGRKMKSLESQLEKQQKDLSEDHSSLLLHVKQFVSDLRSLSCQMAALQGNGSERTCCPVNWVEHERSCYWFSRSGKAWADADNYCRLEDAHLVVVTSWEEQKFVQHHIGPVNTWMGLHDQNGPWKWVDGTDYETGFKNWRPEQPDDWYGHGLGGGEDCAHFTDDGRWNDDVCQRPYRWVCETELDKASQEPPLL

[2] = target: B3; test: SPR, independently immobilized ASGPR
Experimental: (§1) ASGPR SPR experiments were performed on either Biacore T200 or Biacore 8K. The assay was optimized for Biacore SA chip in running buffer consisting of 20 mM HEPES, 300 mM NaCl, 2 mM CaCl₂), 0.01% tween-20, 2% DMSO, pH 7.4. Recombinant extracellular domain of human ASGPR1 with N-terminal biotinylated Avitag was diluted to 20 μg/mL in running buffer, and immobilized onto SA chip after it was preconditioned with at least four 60-second injections at 30 μL/min of 1 M NaCl/40 mM NaOH solution. Protein immobilization level varied from 500 RU to 3500 RU dependent on analytes' molecular weight, for targeted Rmax of 30 RUs. Direct binding of analytes to ASGR1 was observed when a dose response titration of analytes in 2% DMSO was flown over the immobilized protein. Data analysis was done on either Biacore T200 Evaluation Software or Biacore Insight Evaluation Software.

[3] = target: B3; test: SPR, stepwise (single-cycle) injections of the bispecific Ab over immobilised hASGPR1
Experimental: as §1

[4] = target: T1, purified recombinant full length human …; test: SPR, independently immobilized PCSK9
[5] = target: T3, triGalNAc-PCSK9 conjugate 4 (GalNAc-labeled PCSK9) (human, UniProt Q8NBP7 31-692, triGalNAc with a short PEG linker on a single solvent exposed lysine (position not given)); test: SPR, 1:1 binding fit, stepwise injections over ASGPR1; table under FIG. 16B
T3 construct: It is not clear whether the PCSK9 was biotinylated before conjugation; also called triGalNAc-hPCSK9 4; GalNAc trimer-PCSK9 protein conjugate; not shown: Avi-tag
Experimental: as §1

[6] = target: T3, triGalNAc-PCSK9 conjugate 4 …; test: as above; remark: listed apart in the source
Experimental: as §1

[7] = target: B1; test: SPR, 1:1 fit, stepwise injections over avi_deglycosylated_ASGPR1

B1
Kd [1]: 156 nM

B2: anti-ASGPR-PCSK9 bispecific antibody (ASGPR_4F3_scFv-PCSK9_Fab_DANAPA_hIgG1_KiH) (bispecific antibody)
light: not shown
chain: not shown
heavy: QVQLVQSGAEVKKPGASVKVSCKASGYTFTSYYMHWVRQAPGQGLEWMGEISPFGGRTNYNEKFKSRVTMTRDTSTSTVYMELSSLRSEDTAVYYCARERPLYASDLWGQGTTVTVSSASTKGPSVFPLAPSSKSTSGGTAALGCLVKDYFPEPVTVSWNSGALTSGVHTFPAVLQSSGLYSLSSVVTVPSSSLGTQTYICNVNHKPSNTKVDKRVEPKSCDKTHTCPPCPAPELLGGPSVFLFPPKPKDTLMISRTPEVTCVVVAVSHEDPEVKFNWYVDGVEVHNAKTKPREEQYASTYRVVSVLTVLHQDWLNGKEYKCKVSNKALAAPIEKTISKAKGQPREPQVCTLPPSREEMTKNQVSLSCAVKGFYPSDIAVEWESNGQPENNYKTTPPVLDSDGSFFLVSKLTVDKSRWQQGNVFSCSVMHEALHNHYTQKSLSLSPGK
notes: also called ASGPR-PCSK9 bispecific antibody 5; bispecific ASGPR-PCSK9 Ab 5
Kd (His-ASGPR1(62-291)): 3.27 nM
koff (His-ASGPR1(62-291)): 5.93e-05 s⁻¹
kon (His-ASGPR1(62-291)): 18200 M⁻¹ s⁻¹
Kd [2]: 3 nM
Kd [3]: 2.73 nM
koff [3]: 0.000527 s⁻¹
kon [3]: 193000 M⁻¹ s⁻¹
Kd [4]: 0.2 nM

B3
Kd [5]: 0.299 nM
Kd [6]: 0.175 nM
Kd [7]: 1.34 nM

From patent US20240309084A1 (Novartis, published 2024)
